Source: the supplement of paper PMC11246515
± gives the standard deviation of the averaged measurements.

Assay: total protein half-life in vivo (active degradation + dilution); higher = more stable protein
[1] = E. coli NCM3722 delta-clpP delta-lon delta-hslV, growth: N-lim chemostat, doubling time 6 h
[2] = E. coli NCM3722 delta-clpP, growth: N-lim chemostat, doubling time 6 h
[3] = E. coli NCM3722 delta-hslV, growth: N-lim chemostat, doubling time 6 h
[4] = E. coli NCM3722 delta-lon, growth: N-lim chemostat, doubling time 6 h
[5] = E. coli NCM3722 delta-smpB, growth: N-lim chemostat, doubling time 6 h
[6] = wild type E. coli NCM3722, growth: C-lim chemostat, doubling time 3 h
[7] = wild type E. coli NCM3722, growth: C-lim chemostat, doubling time 6 h
[8] = wild type E. coli NCM3722, growth: C-lim chemostat, doubling time 12 h
[9] = wild type E. coli NCM3722, growth: N-lim chemostat, doubling time 6 h
[10] = wild type E. coli NCM3722, growth: N-lim chemostat, doubling time 12 h
[11] = wild type E. coli NCM3722, growth: P-lim chemostat, doubling time 6 h
[12] = wild type E. coli NCM3722, growth: P-lim chemostat, doubling time 12 h

Row | Sequence | total protein half-life in vivo [1] | total protein half-life in vivo [2] | total protein half-life in vivo [3] | total protein half-life in vivo [4] | total protein half-life in vivo [5] | total protein half-life in vivo [6] | total protein half-life in vivo [7] | total protein half-life in vivo [8] | total protein half-life in vivo [9] | total protein half-life in vivo [10] | total protein half-life in vivo [11] | total protein half-life in vivo [12]
1 | MFSIKPGPRNLPIDNPTLLSWNITDGDLNSKLNTLEYLNCITNIINSCGVYPQGLKDREIISTFHAEKVINDLLKNDYKISLSPDTTYRELNKAAQRSITAPDRIGERKTWVYQRDTMIERGDNSGVYQYGRAEHFTHIISDKPSPKDKYVAYAINIPDYELAADVYNINVTSPSGQQETFKILINLEHLRQTLERKSLTAVQKSQCEIITPKKPGEAILHAFNATYQQIRENMSEFARCHYGYIQIPPVTTFRADGPETPEEEKGYWFHAYQPEDLCTIHNPMGDLQDFIALVKDAKKFGIDIIPDYTFNFMGIGGSGKNDLDYPSADIRAKISKDIEGGIPGYWQGQVLIPFIKDPVTKERKQIHPEDIHLTAKDFEASKDNISKDEWENLHALKEKRLNGMPKTTPKSDQVIMLQNQYVREMRKYGVRGLRYDAAKHSKHEQIERSITPPLKNYNERLHNTNLFNPKYHKKAVMNYMEYLVTCQLDEQQMSSLLYERDDLSAIDFSLLMKTIKAFSFGGDLQTLASKPGSTISSIPSERRILININHDFPNNGNLFNDFLFNHQQDEQLAMAYIAALPFSRPLVYWDGQVLKSTTEIKNYDGSTRVGGEAWLNKGCSTYQQLYNEFHALYIDKAGIWSAFEGVSATKNVLAFSRGDSVNINHSPHDGLVIINKGNEEVEGTWPNKLQPGIYKNMGSNSVNIIINNTRKIIPPGKVFTLRGGTLNINIPGRSALLLGKTGEPPNYLYL | 4.26 ± 0.095 h | 3.78 h | 3.6 ± 0.55 h | 3.86 ± 0.15 h | 3.93 ± 0.2 h | 3.14 ± 0.21 h | 4.93 h | 9.02 h | 3.51 h | 5.65 h | 4.45 h | 11.3 ± 3.7 h
2 | MKKATCLTDDQRWQSVLARDPNADGEFVFAVRTTGIFCRPSCRARHALRENVSFYANASEALAAGFRPCKRCQPEKANAQQHRLDKITHACRLLEQETPVTLEALADQVAMSPFHLHRLFKATTGMTPKAWQQAWRARRLRESLAKGESVTTSILNAGFPDSSSYYRKADETLGMTAKQFRHGGENLAVRYALADCELGRCLVAESERGICAILLGDDDATLISELQQMFPAADNAPADLMFQQHVREVIASLNQRDTPLTLPLDIRGTAFQQQVWQALRTIPCGETVSYQQLANAIGKPKAVRAVASACAANKLAIIIPCHRVVRGDGTLSGYRWGVSRKAQLLRREAENEER | – | 3.82 ± 0.28 h | 2.03 h | 3.25 ± 0.14 h | 2.46 h | – | 3.38 h | 4.07 h | 2.22 h | 3.48 h | 1.81 h | 3.5 ± 0.11 h
3 | MFNNILVVCVGNICRSPTAERLLQRYHPELKVESAGLGALVGKGADPTAISVAAEHQLSLEGHCARQISRRLCRNYDLILTMEKRHIERLCEMAPEMRGKVMLFGHWDNECEIPDPYRKSRETFAAVYTLLERSARQWAQALNAEQV [P0AAB2] | 5.46 h | – | – | 1.13 h | – | – | – | – | – | – | – | –
4 | MANSITADEIREQFSQAMSAMYQQEVPQYGTLLELVADVNLAVLENNPQLHEKMVNADELARLNVERHGAIRVGTAQELATLRRMFAIMGMYPVSYYDLSQAGVPVHSTAFRPIDDASLARNPFRVFTSLLRLELIENEILRQKAAEILRQRDIFTPRCRQLLEEYEQQGGFNETQAQEFVQEALETFRWHQSATVDEETYRALHNEHRLIADVVCFPGCHINHLTPRTLDIDRVQSMMPECGIEPKILIEGPPRREVPILLRQTSFKALEETVLFAGQKQGTHTARFGEIEQRGVALTPKGRQLYDDLLRNAGTGQDNLTHQMHLQETFRTFPDSEFLMRQQGLAWFRYRLTPSGEAHRQAIHPGDDPQPLIERGWVVAQPITYEDFLPVSAAGIFQSNLGNETQTRSHGNASREAFEQALGCPVLDEFQLYQEAEERSKRRCGLL | 4.93 ± 0.48 h | 4.86 ± 2.3 h | 3.34 h | 3.29 ± 0.28 h | 3.09 ± 0.13 h | 1.93 ± 0.29 h | 3.5 ± 0.098 h | 5.086 ± 0.02 h | 3.41 ± 0.23 h | 4.83 ± 0.42 h | 3.15 ± 0.84 h | 6.32 ± 0.42 h
5 | MLYLTKISNAGSEFTENEQKIADFLQANVSELQSVSSRQMAKQLGISQSSIVKFAQKLGAQGFTELRMALIGEYSASREKTNATALHLHSSITSDDSLEVIARKLNREKELALEQTCALLDYARLQKIIEVISKAPFIQITGLGGSALVGRDLSFKLMKIGYRVACEADTHVQATVSQALKKGDVQIAISYSGSKKEIVLCAEAARKQGATVIAITSLTDSPLRRLAHFTLDTVSGETEWRSSSMSTRTAQNSVTDLLFVGLVQLNDVESLKMIQRSSELTQRLK | 6.32 ± 0.32 h | 5.62 ± 0.76 h | 5.52 ± 0.44 h | 5.93 ± 2.8 h | 5.37 ± 0.52 h | 3.04 ± 0.11 h | 5.97 ± 0.46 h | 12.7 ± 3 h | 5.36 ± 0.48 h | – | 5.74 h | 12 ± 2 h
6 | MKQVCVLGNGQLGRMLRQAGEPLGIAVWPVGLDAEPAAVPFQQSVITAEIERWPETALTRELARHPAFVNRDVFPIIADRLTQKQLFDKLHLPTAPWQLLAERSEWPAVFDRLGELAIVKRRTGGYDGRGQWRLRANETEQLPAECYGECIVEQGINFSGEVSLVGARGFDGSTVFYPLTHNLHQDGILRTSVAFPQANAQQQAQAEEMLSAIMQELGYVGVMAMECFVTPQGLLINELAPRVHNSGHWTQNGASISQFELHLRAITDLPLPQPVVNNPSVMINLIGSDVNYDWLKLPLVHLHWYDKEVRPGRKVGHLNLTDSDTSRLTATLEALIPLLPPEYASGVIWAQSKFG | 5.64 ± 0.49 h | 4.96 ± 1.2 h | 3.96 ± 0.012 h | – | 4.51 ± 0.38 h | 3.19 ± 0.41 h | 6.83 ± 1.3 h | 9.39 ± 0.78 h | 4.393 ± 0.015 h | 8.59 ± 3.2 h | 6.17 ± 0.59 h | 12.1 ± 0.25 h
7 | MIKVLFFAQVRELVGTDATEVAADFPTVEALRQHMAAQSDRWALALEDGKLLAAVNQTLVSFDHPLTDGDEVAFFPPVTGG | – | 4.52 ± 0.36 h | 4.61 ± 0.15 h | 5.83 ± 0.47 h | 4.6 ± 0.21 h | 2.96 ± 0.2 h | 4.76 ± 0.41 h | 9.64 ± 0.42 h | 4.25 ± 0.17 h | 7.72 ± 0.16 h | 5.12 ± 0.3 h | 11.7 ± 0.55 h
8 | MNTARLNQGTPLLLNAVSKHYAENIVLNQLDLHIPAGQFVAVVGRSGGGKSTLLRLLAGLETPTAGDVLAGTTPLAEIQEDTRMMFQDARLLPWKSVIDNVGLGLKGQWRDAARRALAAVGLENRAGEWPAALSGGQKQRVALARALIHRPGLLLLDEPLGALDALTRLEMQDLIVSLWQEHGFTVLLVTHDVSEAVAMADRVLLIEEGKIGLDLTVDIPRPRRLGSVRLAELEAEVLQRVMQRGESETRLRKQG [P0AAI1] | 5.9 ± 0.12 h | 1.1 h | – | – | – | – | – | – | – | – | – | –
9 | MAEKKQWHETLHDQFGQYFAVDNVLYHEKTDHQDLIIFENAAFGRVMALDGVVQTTERDEFIYHEMMTHVPLLAHGHAKHVLIIGGGDGAMLREVTRHKNVESITMVEIDAGVVSFCRQYLPNHNAGSYDDPRFKLVIDDGVNFVNQTSQTFDVIISDCTDPIGPGESLFTSAFYEGCKRCLNPGGIFVAQNGVCFLQQEEAIDSHRKLSHYFSDVGFYQAAIPTYYGGIMTFAWATDNDALRHLSTEIIQARFLASGLKCRYYNPAIHTAAFALPQYLQDALASQPS | – | 4.62 ± 0.2 h | 4.51 ± 0.12 h | 4.89 ± 0.27 h | 4.49 ± 0.41 h | – | 7.06 ± 0.82 h | 9.58 ± 0.14 h | 4.21 ± 0.35 h | 7.27 ± 0.36 h | 5.86 ± 0.46 h | 13 ± 2.3 h
10 | MKKWLLAAGLGLALATSAQAADKIAIVNMGSLFQQVAQKTGVSNTLENEFKGRASELQRMETDLQAKMKKLQSMKAGSDRTKLEKDVMAQRQTFAQKAQAFEQDRARRSNEERGKLVTRIQTAVKSVANSQDIDLVVDANAVAYNSSDVKDITADVLKQVK [P0AEU7] | 7.77 ± 0.22 h | – | 6.97 ± 1 h | 6.66 ± 0.53 h | 6.63 ± 0.26 h | 3.15 ± 0.35 h | 6 ± 0.15 h | 10.3 ± 0.22 h | 5.62 ± 0.57 h | 13.4 ± 1.8 h | 6.79 ± 1 h | 13.7 ± 0.66 h
11 | MVIGPFINASAVLLGGVLGALLSQRLPERIRVSMTSIFGLASLGIGILLVVKCANLPAMVLATLLGALIGEICLLEKGVNTAVAKAQNLFRHSRKKPAHESFIQNYVAIIVLFCASGTGIFGAMNEGMTGDPSILIAKSFLDFFTAMIFACSLGIAVSVISIPLLIIQLTLAWAAALILPLTTPSMMADFSAVGGLLLLATGLRICGIKMFPVVNMLPALLLAMPLSAAWTAWFA | – | 6.45 h | – | – | – | – | – | – | – | 10.8 h | – | –
12 | MKKLINDVQDVLDEQLAGLAKAHPSLTLHQDPVYVTRADAPVAGKVALLSGGGSGHEPMHCGYIGQGMLSGACPGEIFTSPTPDKIFECAMQVDGGEGVLLIIKNYTGDILNFETATELLHDSGVKVTTVVIDDDVAVKDSLYTAGRRGVANTVLIEKLVGAAAERGDSLDACAELGRKLNNQGHSIGIALGACTVPAAGKPSFTLADNEMEFGVGIHGEPGIDRRPFSSLDQTVDEMFDTLLVNGSYHRTLRFWDYQQGSWQEEQQTKQPLQSGDRVIALVNNLGATPLSELYGVYNRLTTRCQQAGLTIERNLIGAYCTSLDMTGFSITLLKVDDETLALWDAPVHTPALNWGK | 5.88 ± 0.29 h | 5.22 ± 0.51 h | 5.21 ± 0.23 h | – | 5.33 ± 0.57 h | 2.78 ± 0.28 h | 5.7 ± 0.2 h | 10.4 ± 0.73 h | 5.72 ± 0.15 h | 10.3 ± 1.2 h | 5.75 ± 0.93 h | 12.5 ± 0.43 h
